Test results: patent US20250320305A1 (Hoffmann-La Roche, published 2025)

Tests used:
[1] = biological target: T1, human CD40 expressed on cells (human, UniProt P25942 21-277); assay: cell-based or functional assay
[2] = biological target: T2, His-tagged human FAP ectodomain (human, UniProt Q12884 27-760); assay: SPR, His-tagged human FAP ectodomain as ligand
T2 construct: also called hu FAP ectodomain+poly-lys-tag+his6-tag; His-tagged FAP antigen

[3] = biological target: T3, biotinylated recombinant human FAP (human, UniProt Q12884 26-760, biotinylated); assay: SPR (Biacore)
T3 construct: also called biotinylated human FAP

[4] = biological target: T1, human CD40 expressed on cells; assay: flow cytometry, Raji cells;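 also: cell binding of antibodies to Raji cells detected by flow cytometry using an Alexa488-labelled anti-human IgG secondary antibody, primary incubation 1 h at 4 °C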
Experimental: CD40 positive cells (Raji cells) were detatched from the culture bottle using Trypsin and were counted using a Casy cell counter. After pelleting at 4° C., the cells were resuspended in FACS Buffer (2.5% FCS in PBS), adjusted to 2.0E+06 cells/mL, and dispensed to 96-well PP V-bottom-plates (25 μL/well=5.0E+04Zellen/well).
The CD40 specific antibodies were adjusted to 20 μg/mL in FACS buffer, resulting in a final concentration of 10 μg/mL. 20 μl were added to 25 μl cell suspension and incubated for 1 h at 4° C. The cells were then washed twice in FACS buffer. After washing, the cells were resuspended in 50 μL FACS-buffer containing secondary antibody (<huIgG>-Alexa488, c=10 μg/mL) and incubated 1 h bei 4° C. The cells were then washed twice in FACS buffer and resuspended in 70 μl/well FACS buffer for measurement using a FACS Canto (BD, Pharmingen).

[5] = biological target: T4, human CD40 extracellular domain with C-terminal His-AviTag (human, UniProt P25942 21-193); assay: SPR, antibody captured, CD40 ECD analyte;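 also: biacore SPR at 25 °C in PBS-T pH 7.4, CD40 ECD analyte from 300 nM in 1:3 series, 300 s association, up to 1200 s dissociation, double-referenced, Langmuir 1:1 fit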
T4 construct: not shown: C-terminal His-AviTag

Kd [3] [pM] | T ½ [3] [h] | koff [3] [s⁻¹] | kon [3] [M⁻¹ s⁻¹] | EC50 [4] [µg/mL] | Kd [5] [pM] | koff [5] [s⁻¹] | kon [5] [M⁻¹ s⁻¹] | Binder | also measured
 |  |  |  |  |  |  |  | P1AF0873, CD40 (P1AE0817) x FAP (P1AE1689) (1+1) C-terminal crossfab fusion (bispecific antibody, human IgG1, kappa, L234A L235A) light 1: QVQLVQSGAEVKKPGASVKVSCKASGYTLTDYNMDWVRQAPGQGLEWIGDIYPNTGGTIYNQKFKGRVTMTIDTSTSTVYMELSSLRSEDTAVYYCTRFRGIHYAMDYWGQGTTVTVSSASVAAPSVFIFPPSDEQLKSGTASVVCLLNNFYPREAKVQWKVDNALQSGNSQESVTEQDSKDSTYSLSSTLTLSKADYEKHKVYACEVTHQGLSSPVTKSFNRGEC light 2: DIVMTQTPLSLSVTPGQPASISCRSSQSLVHSNGNTFLHWYLQKPGQSPQLLIYTVSNRFSGVPDRFSGSGSGTDFTLKISRVEAEDVGVYFCSQTTHVPWTFGGGTKVEIKRTVAAPSVFIFPPSDRKLKSGTASVVCLLNNFYPREAKVQWKVDNALQSGNSQESVTEQDSKDSTYSLSSTLTLSKADYEKHKVYACEVTHQGLSSPVTKSFNRGEC heavy: not shown not shown | EC50, two cell line bridging assay (SEAP of HEK-Blue CD40L reporter cells with FAP-expressing WM-266-4 cells) [1]: 26.5 pM
 |  |  |  |  |  |  |  | P1AE2734, CD40 (P1AE0817) x FAP (P1AE1689) (2+1) with different C-terminal crossfab fusion (bispecific antibody, human IgG1, kappa, L234A L235A, bivalent for CD40, monovalent for FAP; also called VH-Ckappa fused to Fc) light 1: EIVLTQSPATLSLSPGERATLSCRASESVDNYGLSFINWFQQKPGQAPRLLIYGTSNRGSGIPARFSGSGSGTDFTLTISSLEPEDFAVYFCQQSNEVPYTFGGGTKVEIKSSASTKGPSVFPLAPSSKSTSGGTAALGCLVKDYFPEPVTVSWNSGALTSGVHTFPAVLQSSGLYSLSSVVTVPSSSLGTQTYICNVNHKPSNTKVDKKVEPKSC light 2: DIVMTQTPLSLSVTPGQPASISCRSSQSLVHSNGNTFLHWYLQKPGQSPQLLIYTVSNRFSGVPDRFSGSGSGTDFTLKISRVEAEDVGVYFCSQTTHVPWTFGGGTKVEIKRTVAAPSVFIFPPSDEQLKSGTASVVCLLNNFYPREAKVQWKVDNALQSGNSQESVTEQDSKDSTYSLSSTLTLSKADYEKHKVYACEVTHQGLSSPVTKSFNRGEC heavy 1: not shown heavy 2: QVQLVQSGAEVKKPGASVKVSCKASGYSFTGYYIHWVRQAPGQSLEWMGRVIPNAGGTSYNQKFKGRVTLTVDKSISTAYMELSRLRSDDTAVYYCAREGIYWWGQGTTVTVSSASTKGPSVFPLAPSSKSTSGGTAALGCLVKDYFPEPVTVSWNSGALTSGVHTFPAVLQSSGLYSLSSVVTVPSSSLGTQTYICNVNHKPSNTKVDKKVEPKSCDKTHTCPPCPAPEAAGGPSVFLFPPKPKDTLMISRTPEVTCVVVDVSHEDPEVKFNWYVDGVEVHNAKTKPREEQYNSTYRVVSVLTVLHQDWLNGKEYKCKVSNKALGAPIEKTISKAKGQPREPQVCTLPPSRDELTKNQVSLSCAVKGFYPSDIAVEWESNGQPENNYKTTPPVLDSDGSFFLVSKLTVDKSRWQQGNVFSCSVMHEALHNHYTQKSLSLSPG | Kd [2]: 210 pM; koff [2]: 5.2e-05 s⁻¹; kon [2]: 250000 M⁻¹ s⁻¹
213 | 1.8 | 0.000107 | 502000 |  |  |  |  | P1AE1702_Fab, humanized anti-FAP clone 212 variant with VL2G2a (Fab, V domains shown, Fab) VH: EVQLLESGGGLVQPGGSLRLSCAASGYTLTDYNMDWVRQAPGKGLEWVGDIYPNTGGTIYNQKFKGRFTISIDKSKNTAYLQMNSLRAEDTAVYYCTRFRGIHYAMDYWGQGTTVTVSS VL: DIQMTQSPSSLSASVGDRVTITCRASESVDNYGLSFINWFQQKPGQPPKLLIYGTSNRGSGVPSRFSGSGSGTDFTLTISSLQPEDFAMYFCQQSNEVPYTFGGGTKVEIK | 
114 | 3.05 | 6.3e-05 | 551000 |  |  |  |  | P1AE1690_Fab, humanized anti-FAP clone 212 variant VH1G2a/VL1G1a (Fab, V domains shown, Fab) VH: QVQLVQSGAEVKKPGASVKVSCKASGYTLTDYNMDWVRQAPGKSLEWIGDIYPNTGGTIYNQKFKGRVTMTIDKSTSTVYMELSSLRSEDTAVYYCTRFRGIHYAMDYWGQGTTVTVSS VL: EIVLTQSPATLSLSPGERATLSCRASESVDNYGLSFINWFQQKPGQAPRLLIYGTSNRGSGIPARFSGSGSGTDFTLTISSLEPEDFAVYFCQQSNEVPYTFGGGTKVEIK | 
95 | 4.57 | 4.21e-05 | 443000 |  |  |  |  | P1AE1689_Fab, humanized anti-FAP clone 212 variant VH1G1a/VL1G1a (Fab, V domains shown, Fab) VH: QVQLVQSGAEVKKPGASVKVSCKASGYTLTDYNMDWVRQAPGQGLEWIGDIYPNTGGTIYNQKFKGRVTMTIDTSTSTVYMELSSLRSEDTAVYYCTRFRGIHYAMDYWGQGTTVTVSS VL: EIVLTQSPATLSLSPGERATLSCRASESVDNYGLSFINWFQQKPGQAPRLLIYGTSNRGSGIPARFSGSGSGTDFTLTISSLEPEDFAVYFCQQSNEVPYTFGGGTKVEIK | 
135 | 2.68 | 7.18e-05 | 530000 |  |  |  |  | P1AE1693_Fab, humanized anti-FAP clone 212 variant VH1G2a/VL1G2a (Fab, V domains shown, Fab) VH: QVQLVQSGAEVKKPGASVKVSCKASGYTLTDYNMDWVRQAPGKSLEWIGDIYPNTGGTIYNQKFKGRVTMTIDKSTSTVYMELSSLRSEDTAVYYCTRFRGIHYAMDYWGQGTTVTVSS VL: EIVLTQSPATLSLSPGERATLSCRASESVDNYGLSFINWFQQKPGQPPRLLIYGTSNRGSGIPARFSGSGSGTDFTLTISSLEPEDFAVYFCQQSNEVPYTFGGGTKVEIK | 
 |  |  |  | 0.13 | 2500 | 0.00606 | 2.46e+06 | P1AE1003, humanized anti-CD40 antibody VH1b/VL1b, huIgG1_LALA_PG (antibody, V domains shown, huIgG1 with effector silent Fc (P329G, L234A, L235A)) VH: QVQLVQSGAEVKKPGASVKVSCKASGYSFTGYYIHWVRQAPGKSLEWMGRVIPNAGGTSYNQKFKGRVTLTVDKSISTAYMELSRLRSDDTAVYYCAREGIYWWGQGTTVTVSS VL: DIVVTQTPLSLSVTPGQPASISCRSSQSLVHSNGNTFLHWYLQKPGQSPQLLIYTVSNRFSGVPDRFSGSGSGTDFTLKISRVEAEDVGVYFCSQTTHVPWTFGGGTKVEIK | 
 |  |  |  | 0.14 | 2600 | 0.00651 | 2.53e+06 | P1AE1006, humanized anti-CD40 antibody VH1c/VL1b, huIgG1_LALA_PG (antibody, V domains shown, huIgG1 with effector silent Fc (P329G, L234A, L235A)) VH: QVQLVQSGAEVKKPGASVKVSCKASGYSFTGYYIHWVRQAPGQSLEWMGRVIPNAGGTSYNQKFKGRVTLTVDKSISTAYMELSRLRSDDTAVYYCAREGIYWWGHGTTVTVSS VL: DIVVTQTPLSLSVTPGQPASISCRSSQSLVHSNGNTFLHWYLQKPGQSPQLLIYTVSNRFSGVPDRFSGSGSGTDFTLKISRVEAEDVGVYFCSQTTHVPWTFGGGTKVEIK | 
 |  |  |  | 0.11 | 3200 | 0.00816 | 2.58e+06 | P1AE1005, humanized anti-CD40 antibody VH1b/VL1d, huIgG1_LALA_PG (antibody, V domains shown, huIgG1 with effector silent Fc (P329G, L234A, L235A)) VH: QVQLVQSGAEVKKPGASVKVSCKASGYSFTGYYIHWVRQAPGKSLEWMGRVIPNAGGTSYNQKFKGRVTLTVDKSISTAYMELSRLRSDDTAVYYCAREGIYWWGQGTTVTVSS VL: DVVVTQTPLSLSVTPGQPASISCRSSQSLVHSNGNTFLHWYLQKPGQSPQLLIYTVSNRFSGVPDRFSGSGSGTDFTLKISRVEAEDVGVYFCSQTTHVPWTFGGGTKLEIK | 
 |  |  |  | 0.14 | 3000 | 0.00795 | 2.63e+06 | P1AE1004, humanized anti-CD40 antibody VH1b/VL1c, huIgG1_LALA_PG (antibody, V domains shown, huIgG1 with effector silent Fc (P329G, L234A, L235A)) VH: QVQLVQSGAEVKKPGASVKVSCKASGYSFTGYYIHWVRQAPGKSLEWMGRVIPNAGGTSYNQKFKGRVTLTVDKSISTAYMELSRLRSDDTAVYYCAREGIYWWGQGTTVTVSS VL: DVVVTQTPLSLSVTPGQPASISCRSSQSLVHSNGNTFLHWYLQKPGQSPQLLIYTVSNRFSGVPDRFSGSGSGTDFTLKISRVEAEDVGVYFCSQTTHVPWTFGGGTKVEIK | 
 |  |  |  | 0.12 | 2700 | 0.00662 | 2.5e+06 | P1AE1007, humanized anti-CD40 antibody VH1d/VL1b, huIgG1_LALA_PG (antibody, V domains shown, huIgG1 with effector silent Fc (P329G, L234A, L235A)) VH: QVQLVQSGAEVKKPGASVKVSCKASGYSFTGYYIHWVRQAPGQSLEWMGRVIPNAGGTSYNQKFKGRVTLSVDKSISTAYMELSRLRSDDTAVYYCAREGIYWWGQGTTVTVSS VL: DIVVTQTPLSLSVTPGQPASISCRSSQSLVHSNGNTFLHWYLQKPGQSPQLLIYTVSNRFSGVPDRFSGSGSGTDFTLKISRVEAEDVGVYFCSQTTHVPWTFGGGTKVEIK | 
